Source: US20040067231A1 (published 2004)
Residue numbers refer to the chain shown, from its start.

B1: antibody having both a humanized H-chain version “a” and a chimeric L-chain (antibody, V domains shown)
VH: QVQLVESGGGVVQPGRSLRLSCAASGFTFSSYGMSWVRQAPGKGLEWVATISSGGSYTYYPDSVKGRFTISRDNSKNTLYLQMNSLRAEDTAVYYCARQTTMTYFAYWGQGTLVTVSS
VL: QLVLTQSSSASFSLGASAKLTCTLSSQHSTYTIEWYQQQPLKPPKYVMDLKQDGSHSTGDGIPDRFSGSSSGADRYLSISNIQPEDEAMYICGVGDTIKEQFVYVFGGGTKVTVLG
notes: H-chain C-region is human Cγ1
B2: humanized #23-57-137-1 antibody having L-chain version “j” (antibody, V domains shown)
VH: B1 VH
VL: QLVLTQSPSASASLGASVKLTCTLSSQHSTYTIEWYQQQPEKGPKYLMDLKQDGSHSTGDGIPDRFSGSSSGAERYLTISSLQSEDEADYYCGVGDTIKEQFVYVFGGGTKLTVLG
notes: Humanized H-chain version a with human Cγ1; L-chain with human λ C-region (Cλ/pUC19); also called hMBC1HcDNA/pCOS1 and hMBC1Ljλ/pCOS1
B3: humanized #23-57-137-1 antibody having L-chain version “l” (antibody, V domains shown)
VH: B1 VH
VL: B2 VL with L47V
notes: Humanized H-chain version a with human Cγ1; L-chain with human λ C-region; also called hMBC1HcDNA/pCOS1 and hMBC1Llλ/pCOS1
B4: humanized #23-57-137-1 antibody having L-chain version “m” (antibody, V domains shown)
VH: B1 VH
VL: B2 VL with K45R
notes: Humanized H-chain version a with human Cγ1; L-chain with human λ C-region; also called hMBC1HcDNA/pCOS1 and hMBC1Lmλ/pCOS1
B5: humanized #23-57-137-1 antibody having L-chain version “o” (antibody, V domains shown)
VH: B1 VH
VL: B2 VL with K45R, L47V
notes: Humanized H-chain version a with human Cγ1; L-chain with human λ C-region; also called hMBC1HcDNA/pCOS1 and hMBC1Loλ/pCOS1
B6: humanized #23-57-137-1 antibody having L-chain version “q” (antibody, V domains shown)
VH: B1 VH
VL: B2 VL with Y91I
notes: Humanized H-chain version a with human Cγ1; L-chain with human λ C-region; also called humanized antibody L-chain version “q”; hMBC1HcDNA and hMBC1Lqλ
B7: humanized #23-57-137-1 antibody having L-chain version “t” (antibody, V domains shown)
VH: B1 VH
VL: B2 VL with K45R, L47V, Y91I
notes: Humanized H-chain version a with human Cγ1; L-chain with human λ C-region; also called hMBC1HcDNA/pCOS1 and hMBC1Ltλ/pCOS1
B8: mouse FR1,2/human FR3,4 hybrid antibody with L-chain m/hMBC1Ldλ (antibody, V domains shown)
VH: B1 VH
VL: QLVLTQSSSASFSLGASAKLTCTLSSQHSTYTIEWYQQQPLKPPKYVMDLKQDGSHSTGDGIPDRFSGSSSGAERYLTISSLQSEDEADYICGVGDTIKEQFVYVFGGGTKLTVL
notes: H-chain from hMBC1HcDNA/pCOS1 (humanized version a, human Cγ1); L-chain C-region human λ; Expressed in COS-7 cells
B9: human FR1/mouse FR2,3,4 hybrid antibody with L-chain hmmMBC1L(λ) (antibody, V domains shown)
VH: B1 VH
VL: B8 VL with S8P, F12A, A18V, E74D, T78S, S81N, L82I, S84P, D89M, L112V
notes: H-chain from hMBC1HcDNA/pCOS1 (humanized version a, human Cγ1); L-chain C-region human λ; Expressed in COS-7 cells; also called FR1/FR2 hybrid antibody
B10: mouse FR1,2/human FR3,4 hybrid antibody with L-chain m/hMBC1Laλ (antibody, V domains shown)
VH: B1 VH
VL: B8 VL with I91Y
notes: as for B8

molecular target: T1, human PTHrP (1-34) (human); experiment: ELISA on coated human PTHrP (1-34)
T1 construct: Synthetic peptide (Peninsula; Peptide Research Institute); Coated on the ELISA plate at 1 µg/ml; used in solid phase RIA for the hybridoma screening; also called parathyroid hormone related peptide (1-34)
Procedure: An ELISA plate for determining antigen-binding ability was prepared as follows. Each well of a 96-well ELISA plate (Maxisorp, NUNC) was coated with 100 μl of a coating buffer containing 1 μg/ml of human PTHrP (1-34) and then blocked with 200 μl of a dilution buffer. Subsequently, each well was added with each of the serial dilutions of the COS-7 cell culture supernatant in which each of the hybrid antibodies and humanized antibodies was expressed, or added with each of the serial dilutions of each of the hybrid antibodies and humanized antibodies in a purified form. The plate was incubated at room temperature and washed with PBS-Tween 20. Subsequently, each well was added with 100 μl of alkaline phosphatase-conjugated goat anti-human IgG antibody (TAGO). The plate was incubated at room temperature and washed with PBS-Tween 20. Subsequently, each well was added with 1 mg/ml of a substrate solution (“Sigma 104”, p-nitrophenylphosphoric acid, SIGMA). The solution was measured on its absorbance at 405 nm using Microplate Reader (Bio Rad).

Does B1 bind?
Result: binds

Does B2 bind?
Result: binds

Does B3 bind?
Result: binds

Does B4 bind?
Result: binds

Does B5 bind?
Result: binds

Does B6 bind?
Result: binds

Does B7 bind?
Result: binds

Does B8 bind?
Result: binds

Does B9 bind?
Result: binds

Does B10 bind?
Result: binds
